Assay results: article PMC2875865 (Nature cell biology, 2010)

Tests used:
[1] = target: full-length FLAG-tagged Orai1 purified from insect cells (human, UniProt Q96D31 1-301); experiment: pull-down
[2] = target: full-length FLAG-tagged STIM1 purified from insect cells (human, UniProt Q13586 23-685); experiment: pull-down
Sequence of full-length FLAG-tagged STIM1 purified from insect cells (Q13586 23-685): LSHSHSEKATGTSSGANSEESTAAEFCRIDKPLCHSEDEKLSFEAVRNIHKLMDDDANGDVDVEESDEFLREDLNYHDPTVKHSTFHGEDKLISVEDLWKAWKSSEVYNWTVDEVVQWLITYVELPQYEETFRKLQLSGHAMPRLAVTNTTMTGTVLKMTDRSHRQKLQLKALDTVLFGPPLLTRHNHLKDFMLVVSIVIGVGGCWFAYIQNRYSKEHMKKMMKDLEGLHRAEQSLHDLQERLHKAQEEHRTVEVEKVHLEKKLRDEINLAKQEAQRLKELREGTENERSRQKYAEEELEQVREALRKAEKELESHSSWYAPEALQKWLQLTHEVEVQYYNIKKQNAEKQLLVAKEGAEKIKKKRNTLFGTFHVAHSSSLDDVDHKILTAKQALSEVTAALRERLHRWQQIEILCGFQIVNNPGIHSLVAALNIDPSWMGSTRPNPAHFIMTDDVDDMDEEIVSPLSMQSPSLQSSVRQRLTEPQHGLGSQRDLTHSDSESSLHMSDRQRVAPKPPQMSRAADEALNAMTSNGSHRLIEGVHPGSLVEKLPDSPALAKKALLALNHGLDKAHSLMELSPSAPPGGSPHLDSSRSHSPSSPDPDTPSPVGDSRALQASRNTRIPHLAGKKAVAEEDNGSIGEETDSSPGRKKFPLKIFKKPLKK

Sequence of full-length FLAG-tagged Orai1 purified from insect cells (Q96D31 whole entry): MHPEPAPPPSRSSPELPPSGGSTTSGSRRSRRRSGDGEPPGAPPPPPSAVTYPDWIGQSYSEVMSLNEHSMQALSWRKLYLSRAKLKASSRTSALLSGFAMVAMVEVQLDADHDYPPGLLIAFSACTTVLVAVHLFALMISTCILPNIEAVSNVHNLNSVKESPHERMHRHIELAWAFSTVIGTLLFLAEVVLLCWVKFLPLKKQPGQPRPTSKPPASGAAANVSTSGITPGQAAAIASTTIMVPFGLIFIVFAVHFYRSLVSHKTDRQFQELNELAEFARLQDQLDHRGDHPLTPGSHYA

B1: GST-fused STIM1 serine/threonine rich sequence (S/T) (domain or fragment)
chain: SSLDDVDHKILTAKQALSEVTAALRERLHRWQQIEILCGFQIVNNPGIHSLVAALNIDPSWMGSTRPNPAHFIMTDDVDDMDEEIVSPLSMQSPSLQSSVRQRLTEPQHGLGSQRDLTHSDSESSLHMSDRQRVAPKPPQMSRAADEALNAMTSNGSHRLIEGVHPGSLVEKLPDSPALAKKALLALNHGLDKAHSLMELS
binding result [1]: binds | binding result [2]: binds
